Reference: publication PMC6152951

Biological target: Strep-Flag-FAS I, recombinant 4'-phosphopantetheinylated M. tuberculosis fatty acid synthase I (M. tuberculosis)
Experiment: SEC; […] (100 mM potassium phosphate pH 7.2, 150 mM KCl, 1 mM TCEP, 1 mM EDTA); […]

With “Strep-Flag-FAS I, recombinant 4'-phosphopantetheinylated M. tuberculosis fatty acid synthase I (enzyme)” the stoichiometry N was 6.
